Measurements reported in US20130133089A1 (MEDICAL RESEARCH INFRASTRUCTURE AND HEALTH SERVICES FUND OF …, published 2013).
Like-named read-outs stand apart in the source and are kept apart here.

T1: Recombinant human leptin binding domain (hLBD) (human, UniProt P48357 428-635, biotinylated with Sulfo-NHS-LC-Biotin in the yeast display assays; not labelled when immobilized in the plate binding assay)
T1 construct: CRH2 sub-domain of the leptin receptor; Prepared in the applicants' laboratory; also called soluble human leptin receptor; CHR2
T1 sequence (looked up): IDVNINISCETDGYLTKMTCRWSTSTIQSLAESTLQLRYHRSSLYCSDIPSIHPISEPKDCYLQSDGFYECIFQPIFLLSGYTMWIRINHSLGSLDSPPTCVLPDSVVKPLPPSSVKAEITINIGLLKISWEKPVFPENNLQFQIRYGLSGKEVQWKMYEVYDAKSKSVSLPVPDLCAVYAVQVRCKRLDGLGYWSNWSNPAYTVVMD

B1: pegylated superactive mouse leptin antagonist (PEG-SMLA) (ligand)
chain: VPIQKVQDDTKTLIKTLVTRINLISHTQSVSAKQRVTGAAAIPGLHPILSLSKMDQTLAVYQQVLTSLPSQNVLQIANDLENLRDLLHLLAFSKSCSLPQTSGLQKPESLDGVLEASLYSTEVVALSRLQGSLQDILQQVDLSPGC
modifications: mPEG-propionyl-ALD 20 kDa, preferentially on the N-terminal amino group (85% monopegylated, ~9% double pegylated)
notes: also called pegylated SMLA; superANT
B2: superactive mouse leptin antagonist (SMLA), D23L/L39A/D40A/F41A mouse leptin (ligand)
chain: VPIQKVQDDTKTLIKTLVTRINLISHTQSVSAKQRVTGAAAIPGLHPILSLSKMDQTLAVYQQVLTSLPSQNVLQIANDLENLRDLLHLLAFSKSCSLPQTSGLQKPESLDGVLEASLYSTEVVALSRLQGSLQDILQQVDLSPGC
notes: also called D23L MLA; super active MLA
B3: mouse leptin antagonist D23G/L39A/D40A/F41A (ligand)
chain: AVPIQKVQDDTKTLIKTIVTRINGISHTQSVSAKQRVTGAAAIPGLHPILSLSKMDQTLAVYQQVLTSLPSQNVLQIANDLENLRDLLHLLAFSKSCSLPQTSGLQKPESLDGVLEASLYSTEVVALSRLQGSLQDILQQLDVSPEC
notes: mature
B4: recombinant mouse leptin mutein H19 (D23G, T37A, G44D), agonist (ligand)
chain: AVPIQKVQDDTKTLIKTIVTRINGISHTQSVSAKQRVAGLDFIPDLHPILSLSKMDQTLAVYQQVLTSLPSQNVLQIANDLENLRDLLHLLAFSKSCSLPQTSGLQKPESLDGVLEASLYSTEVVALSRLQGSLQDILQQLDVSPEC
notes: mature
B5: mouse leptin antagonist D23W/L39A/D40A/F41A (ligand)
chain: AVPIQKVQDDTKTLIKTIVTRINWISHTQSVSAKQRVTGAAAIPGLHPILSLSKMDQTLAVYQQVLTSLPSQNVLQIANDLENLRDLLHLLAFSKSCSLPQTSGLQKPESLDGVLEASLYSTEVVALSRLQGSLQDILQQLDVSPEC
notes: mature
B6: mouse leptin antagonist D23H/L39A/D40A/F41A (ligand)
chain: AVPIQKVQDDTKTLIKTIVTRINHISHTQSVSAKQRVTGAAAIPGLHPILSLSKMDQTLAVYQQVLTSLPSQNVLQIANDLENLRDLLHLLAFSKSCSLPQTSGLQKPESLDGVLEASLYSTEVVALSRLQGSLQDILQQLDVSPEC
notes: mature; also called H30 (antagonist); D23H MLA
B7: mouse leptin antagonist D23K/L39A/D40A/F41A (ligand)
chain: AVPIQKVQDDTKTLIKTIVTRINKISHTQSVSAKQRVTGAAAIPGLHPILSLSKMDQTLAVYQQVLTSLPSQNVLQIANDLENLRDLLHLLAFSKSCSLPQTSGLQKPESLDGVLEASLYSTEVVALSRLQGSLQDILQQLDVSPEC
notes: mature
B8: recombinant mouse leptin mutein H30 (D23H), agonist (ligand)
chain: AVPIQKVQDDTKTLIKTIVTRINHISHTQSVSAKQRVTGLDFIPGLHPILSLSKMDQTLAVYQQVLTSLPSQNVLQIANDLENLRDLLHLLAFSKSCSLPQTSGLQKPESLDGVLEASLYSTEVVALSRLQGSLQDILQQLDVSPEC
notes: mature
B9: mouse leptin antagonist D23A/L39A/D40A/F41A (ligand)
chain: AVPIQKVQDDTKTLIKTIVTRINAISHTQSVSAKQRVTGAAAIPGLHPILSLSKMDQTLAVYQQVLTSLPSQNVLQIANDLENLRDLLHLLAFSKSCSLPQTSGLQKPESLDGVLEASLYSTEVVALSRLQGSLQDILQQLDVSPEC
notes: mature
B10: mouse leptin antagonist D23F/L39A/D40A/F41A (ligand)
chain: AVPIQKVQDDTKTLIKTIVTRINFISHTQSVSAKQRVTGAAAIPGLHPILSLSKMDQTLAVYQQVLTSLPSQNVLQIANDLENLRDLLHLLAFSKSCSLPQTSGLQKPESLDGVLEASLYSTEVVALSRLQGSLQDILQQLDVSPEC
notes: mature
B11: pegylated mouse leptin antagonist (PEG-MLA) (ligand)
chain: AVPIQKVQDDTKTLIKTIVTRINDISHTQSVSAKQRVTGAAAIPGLHPILSLSKMDQTLAVYQQVLTSLPSQNVLQIANDLENLRDLLHLLAFSKSCSLPQTSGLQKPESLDGVLEASLYSTEVVALSRLQGSLQDILQQLDVSPEC
modifications: pegylated (method previously described for MLA; 20 kDa PEG, site not restated here)
notes: mature; also called pegylated-MLA
B12: mouse leptin antagonist D23R/L39A/D40A/F41A (ligand)
chain: AVPIQKVQDDTKTLIKTIVTRINRISHTQSVSAKQRVTGAAAIPGLHPILSLSKMDQTLAVYQQVLTSLPSQNVLQIANDLENLRDLLHLLAFSKSCSLPQTSGLQKPESLDGVLEASLYSTEVVALSRLQGSLQDILQQLDVSPEC
notes: mature; also called D23R MLA
B13: human leptin super antagonist (SHLA), human leptin D23L/L39A/D40A/F41A (ligand)
chain: VPIQKVQDDTKTLIKTIVTRINLISHTQSVSSKQKVTGAAAIPGLHPILTLSKMDQTLAVYQQILTSMPSQNVIQISNDLENLRDLLHVLAFSKSCHLPWASGLETLDSLGGVLEASGYSTEVVALSRLQGSLQDMLWQLDLSPGC
notes: also called super active human leptin antagonist
B14: pegylated human leptin super antagonist (PEG-SHLA) (ligand)
chain: VPIQKVQDDTKTLIKTIVTRINLISHTQSVSSKQKVTGAAAIPGLHPILTLSKMDQTLAVYQQILTSMPSQNVIQISNDLENLRDLLHVLAFSKSCHLPWASGLETLDSLGGVLEASGYSTEVVALSRLQGSLQDMLWQLDLSPGC
modifications: mPEG-propionyl-ALD 20 kDa, preferentially on the N-terminal amino group

Key:
[1] = biological target: Recombinant human leptin binding domain (hLBD) (human) (UniProt P48357); test: competitive plate binding assay: immobilized hLBD, biotinylated mouse leptin as ligand, mutein as competitor
[2] = biological target: long form of human leptin receptor (hLEPR) on BAF/3 or H-49 (HEK-293) cells (human) (UniProt P48357); test: cell-based or functional assay
long form of human leptin receptor (hLEPR) on BAF/3 or H-49 (HEK-293) cells (human), sequence (P48357 22-1165): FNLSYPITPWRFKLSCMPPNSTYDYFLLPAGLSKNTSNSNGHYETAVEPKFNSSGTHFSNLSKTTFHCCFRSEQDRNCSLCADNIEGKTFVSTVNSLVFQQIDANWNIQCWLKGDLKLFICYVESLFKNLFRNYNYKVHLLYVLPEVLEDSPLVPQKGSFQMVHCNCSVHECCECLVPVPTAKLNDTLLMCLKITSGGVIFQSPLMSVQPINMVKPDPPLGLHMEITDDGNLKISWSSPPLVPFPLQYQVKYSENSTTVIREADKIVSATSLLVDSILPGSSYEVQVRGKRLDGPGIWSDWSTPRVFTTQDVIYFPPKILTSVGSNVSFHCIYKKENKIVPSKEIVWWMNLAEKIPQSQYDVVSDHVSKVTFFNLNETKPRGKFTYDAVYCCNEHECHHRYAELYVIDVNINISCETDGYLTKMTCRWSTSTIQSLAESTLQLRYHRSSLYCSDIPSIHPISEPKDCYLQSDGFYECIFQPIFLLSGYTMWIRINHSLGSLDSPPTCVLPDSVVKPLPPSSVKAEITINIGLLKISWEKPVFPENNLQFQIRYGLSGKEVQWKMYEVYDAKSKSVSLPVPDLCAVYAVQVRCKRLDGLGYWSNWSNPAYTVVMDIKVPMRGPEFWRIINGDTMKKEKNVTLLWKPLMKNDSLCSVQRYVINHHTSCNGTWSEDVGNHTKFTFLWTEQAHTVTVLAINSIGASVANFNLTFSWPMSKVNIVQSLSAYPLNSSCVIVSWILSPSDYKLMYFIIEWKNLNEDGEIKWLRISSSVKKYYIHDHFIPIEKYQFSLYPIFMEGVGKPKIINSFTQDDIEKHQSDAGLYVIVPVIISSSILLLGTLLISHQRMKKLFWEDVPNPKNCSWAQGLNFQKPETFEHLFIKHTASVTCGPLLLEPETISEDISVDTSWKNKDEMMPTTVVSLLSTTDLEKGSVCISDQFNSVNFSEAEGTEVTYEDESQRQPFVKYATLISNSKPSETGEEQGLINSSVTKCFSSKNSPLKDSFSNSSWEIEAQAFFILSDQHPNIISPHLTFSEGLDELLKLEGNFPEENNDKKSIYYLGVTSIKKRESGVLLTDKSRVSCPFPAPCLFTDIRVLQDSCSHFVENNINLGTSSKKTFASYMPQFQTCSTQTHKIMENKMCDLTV

[3] = biological target: T1, Recombinant human leptin binding domain …; test: competitive plate binding assay on immobilized hLBD, representative experiment (FIG. 7D)
Description: (§1) Biotinylated mouse leptin served as the ligand in all competitive experiments and the respective mouse leptin or mouse or human leptin antagonist muteins as competitors. The hLBD was used as the receptor source. Polystyrene 96-well microtiter plates were coated overnight at 4° C. with 100 μl of 40 μM hLBD in PBS pH 7.4. Wells were then washed one time with PBST (PBS containing 0.05 Tween 20) and blocked with PBS containing 3% skim milk for two hours in room temperature. All further incubations were carried out at room temperature. Wells were washed one time with PBST and incubated with different concentrations of un-labeled leptins (50 μl/well) for 30 min and then 50 μl of 62.5 μM of biotinylated mouse leptin were added to each well for another two hours. Then the wells were washed three times with PBST and incubated with 1:30,000 streptavidin-HRP in PBS containing 1 Tween 20 for one hour. Subsequently the wells were washed three times with PBST and the reaction was quantified in 450 nm by microplate reader ELISA Plate Reader ELx808—Bio-Tek Instrument Inc. (Winooski, Vt., USA) using TMB according to manufacturer's instructions.

[4] = biological target: T1, Recombinant human leptin binding domain …; test: competitive plate binding assay: immobilized hLBD, biotinylated mouse leptin as ligand, mutein as competitor
Description: as §1

[5] = biological target: long form of human leptin receptor (hLEPR) on BAF/3 or H-49 (HEK-293) cells (human), P48357; test: cell-based or functional assay
long form of human leptin receptor (hLEPR) on BAF/3 or H-49 (HEK-293) cells (human), P48357, sequence (P48357 22-1165): as above

[6] = biological target: T1, Recombinant human leptin binding domain …; test: competitive plate binding assay: immobilized hLBD, biotinylated mouse leptin as ligand, mutein as competitor; remark: listed apart in the source
Description: as §1

[7] = biological target: T1, Recombinant human leptin binding domain …; test: competitive plate binding assay on immobilized hLBD
Description: as §1

[8] = biological target: T1, Recombinant human leptin binding domain …; test: competitive plate binding assay on immobilized hLBD (FIG. 12C)
Description: as §1

[9] = biological target: T1, Recombinant human leptin binding domain …; test: competitive plate binding assay on immobilized hLBD (FIG. 12D)
Description: as §1

Row | Molecule | fold increase in affinity as compared to the WT mouse leptin antagonist [4] | BAF/3 bioassay: fold increase in bioactivity as compared to the WT mouse leptin antagonist [5] | other results
1 | recombinant mouse leptin mutein H7 (K11R, Q34R, T37A, F92C, S97Y, I136V), agonist (from UniProt P41160 22-167) (ligand) | – | – | fold increase in affinity as compared to the WT mouse leptin [1]: 0.83 fold; BAF/3 bioassay: fold increase in bioactivity as compared to the WT mouse leptin [2]: 0.5 fold; Luciferase bioassay: fold increase in bioactivity as compared to the WT mouse leptin [2]: 0.3 fold
2 | B1 | – | – | fold reduction in affinity as compared to the non-pegylated SMLA [3]: 6.2 fold
3 | B2 | 64 fold | – | –
4 | B3 | 17.5 fold | 2.5 fold | –
5 | B4 | – | – | fold increase in affinity as compared to the WT mouse leptin [6]: 10.4 fold; BAF/3 bioassay: fold increase in bioactivity as compared to the WT mouse leptin [5]: 0.9 fold; Luciferase bioassay: fold increase in bioactivity as compared to the WT mouse leptin [5]: 1.5 fold
6 | B5 | 36 fold | 4.2 fold | –
7 | B6 | 34 fold | 5 fold | fold increase in affinity as compared to the WT mouse leptin antagonist [6]: 34 fold; Luciferase bioassay: fold increase in bioactivity as compared to the WT mouse leptin antagonist [5]: 5.7 fold
8 | B7 | 19 fold | 3.7 fold | –
9 | B8 | – | – | fold increase in affinity as compared to the WT mouse leptin [6]: 35 fold; BAF/3 bioassay: fold increase in bioactivity as compared to the WT mouse leptin [5]: 0.3 fold; Luciferase bioassay: fold increase in bioactivity as compared to the WT mouse leptin [5]: 0.6 fold
10 | B9 | 21 fold | 3.3 fold | –
11 | B10 | 28 fold | 3.7 fold | –
12 | B11 | – | – | fold reduction in affinity by pegylation, as compared to MLA [7]: 6.3 fold
13 | B12 | 51 fold | 8.6 fold | –
14 | B13 | – | – | fold increase in the affinity due to D23L mutation (against HLA) [8]: 44 fold
15 | B14 | – | – | fold increase in the affinity due to D23L mutation (against PEG-HLA) [9]: 80 fold
